{
  "source": "patent US10544202B2",
  "about": "“Mutant proteins and methods for their production” (Medical Research Council, priority 2013, dated 2020)",
  "key": {"[1]": {"tested_on": "T-REx-293 cells", "experiment": "Expression level of SERT-mCherry mutants transiently transfected into T-REx-293 cells", "type": "cell-based", "details": "relative to wild-type SERT = 100%; transient transfection", "experimental": "(FIG. 3A) Comparison of [^125I]-RTI55 bound to 554 detergent-solubilised Ala/Leu mutants at either 4° C. or after heating at 30° C. for 30 minutes. The data relating to thermostability (the heated samples) have been normalized to the amount of wild-type SERT remaining after heating (40%; horizontal dashed line). The expression level of wild-type SERT is indicated by the vertical dashed line and the grey column (0-200 dpm) represents non-specific binding of [^125I]-RTI55 to the parental T-REx-HEK293 cell line (no SERT). Each data point represents binding to the equivalent of 50,000 cells measured in duplicate (estimated error is ±20% in dpm). […] (FIG. 3C) Amino acid sequence of SERT (SEQ ID NO: 1) showing the positions of the thermostabilising mutations (hatched) that consistently gave >1° C. increase in Tm compared to wild-type SERT; residues in bold and hatched were used to stabilize either SAH6 and/or SAH7. N-linked glycosylation sites are indicated by the hexagons, a putative disulphide bond is shown as a grey line and the N-terminal and C-terminal fusion partners are shown (c-Myc tag and the fluorescent reporter protein mCherry) are indicated."}, "[2]": {"tested_on": "T-REx-293 cells", "experiment": "Cell surface expression by confocal microscopy", "type": "cell-based", "set-up": "key: *: low expression; **: as wild-type SERT; ***: higher expression than wild-type SERT", "details": "estimation by eye of fluorescence upon confocal microscopy"}},
  "data": [
    {"molecule": "L99A: rat SERT single mutant L99A (protein) METTPLNSQKVLSECKDREDCQENGVLQKGVPTTADRAEPSQISNGYSAVPSTSAGDEASHSIPAATTTLVAEIRQGERETWGKKMDFLLSVIGYAVDAGNIWRFPYICYQNGGGAFLLPYTIMAIFGGIPLFYMELALGQYHRNGCISIWRKICPIFKGIGYAICIIAFYIASYYNTIIAWALYYLISSLTDRLPWTSCTNSWNTGNCTNYFAQDNITWTLHSTSPAEEFYLRHVLQIHQSKGLQDLGTISWQLTLCIVLIFTVIYFSIWKGVKTSGKVVWVTATFPYIVLSVLLVRGATLPGAWRGVVFYLKPNWQKLLETGVWVDAAAQIFFSLGPGFGVLLAFASYNKFNNNCYQDALVTSVVNCMTSFVSGFVIFTVLGYMAEMRNEDVSEVAKDAGPSLLFITYAEAIANMPASTFFAIIFFLMLITLGLDSTFAGLEGVITAVLDEFPHIWAKRREWFVLIVVITCVLGSLLTLTSGGAYVVTLLEEYATGPAVLTVALIEAVAVSWFYGITQFCSDVKEMLGFSPGWFWRICWVAISPLFLLFIICSFLMSPPQLRLFQYNYPHWSIVLGYCIGMSSVICIPTYIIYRLISTPGTLKERIIKSITPETPTEIPCGDIRMNAV", "values": [
      {"measurement": "Expression (%) SERT = 100%", "setting": "[1]", "value": 131, "unit": "%"},
      {"measurement": "Cell surface expression", "setting": "[2]", "value": "**"}
    ]},
    {"molecule": "G278A: rat SERT single mutant G278A (protein) METTPLNSQKVLSECKDREDCQENGVLQKGVPTTADRAEPSQISNGYSAVPSTSAGDEASHSIPAATTTLVAEIRQGERETWGKKMDFLLSVIGYAVDLGNIWRFPYICYQNGGGAFLLPYTIMAIFGGIPLFYMELALGQYHRNGCISIWRKICPIFKGIGYAICIIAFYIASYYNTIIAWALYYLISSLTDRLPWTSCTNSWNTGNCTNYFAQDNITWTLHSTSPAEEFYLRHVLQIHQSKGLQDLGTISWQLTLCIVLIFTVIYFSIWKGVKTSAKVVWVTATFPYIVLSVLLVRGATLPGAWRGVVFYLKPNWQKLLETGVWVDAAAQIFFSLGPGFGVLLAFASYNKFNNNCYQDALVTSVVNCMTSFVSGFVIFTVLGYMAEMRNEDVSEVAKDAGPSLLFITYAEAIANMPASTFFAIIFFLMLITLGLDSTFAGLEGVITAVLDEFPHIWAKRREWFVLIVVITCVLGSLLTLTSGGAYVVTLLEEYATGPAVLTVALIEAVAVSWFYGITQFCSDVKEMLGFSPGWFWRICWVAISPLFLLFIICSFLMSPPQLRLFQYNYPHWSIVLGYCIGMSSVICIPTYIIYRLISTPGTLKERIIKSITPETPTEIPCGDIRMNAV", "values": [
      {"measurement": "Expression (%) SERT = 100%", "setting": "[1]", "value": 39, "unit": "%"},
      {"measurement": "Cell surface expression", "setting": "[2]", "value": "*"}
    ]},
    {"molecule": "L405A: rat SERT single mutant L405A (protein) METTPLNSQKVLSECKDREDCQENGVLQKGVPTTADRAEPSQISNGYSAVPSTSAGDEASHSIPAATTTLVAEIRQGERETWGKKMDFLLSVIGYAVDLGNIWRFPYICYQNGGGAFLLPYTIMAIFGGIPLFYMELALGQYHRNGCISIWRKICPIFKGIGYAICIIAFYIASYYNTIIAWALYYLISSLTDRLPWTSCTNSWNTGNCTNYFAQDNITWTLHSTSPAEEFYLRHVLQIHQSKGLQDLGTISWQLTLCIVLIFTVIYFSIWKGVKTSGKVVWVTATFPYIVLSVLLVRGATLPGAWRGVVFYLKPNWQKLLETGVWVDAAAQIFFSLGPGFGVLLAFASYNKFNNNCYQDALVTSVVNCMTSFVSGFVIFTVLGYMAEMRNEDVSEVAKDAGPSALFITYAEAIANMPASTFFAIIFFLMLITLGLDSTFAGLEGVITAVLDEFPHIWAKRREWFVLIVVITCVLGSLLTLTSGGAYVVTLLEEYATGPAVLTVALIEAVAVSWFYGITQFCSDVKEMLGFSPGWFWRICWVAISPLFLLFIICSFLMSPPQLRLFQYNYPHWSIVLGYCIGMSSVICIPTYIIYRLISTPGTLKERIIKSITPETPTEIPCGDIRMNAV", "values": [
      {"measurement": "Expression (%) SERT = 100%", "setting": "[1]", "value": 543, "unit": "%"},
      {"measurement": "Cell surface expression", "setting": "[2]", "value": "***"}
    ]},
    {"molecule": "F311A: rat SERT single mutant F311A (protein) METTPLNSQKVLSECKDREDCQENGVLQKGVPTTADRAEPSQISNGYSAVPSTSAGDEASHSIPAATTTLVAEIRQGERETWGKKMDFLLSVIGYAVDLGNIWRFPYICYQNGGGAFLLPYTIMAIFGGIPLFYMELALGQYHRNGCISIWRKICPIFKGIGYAICIIAFYIASYYNTIIAWALYYLISSLTDRLPWTSCTNSWNTGNCTNYFAQDNITWTLHSTSPAEEFYLRHVLQIHQSKGLQDLGTISWQLTLCIVLIFTVIYFSIWKGVKTSGKVVWVTATFPYIVLSVLLVRGATLPGAWRGVVAYLKPNWQKLLETGVWVDAAAQIFFSLGPGFGVLLAFASYNKFNNNCYQDALVTSVVNCMTSFVSGFVIFTVLGYMAEMRNEDVSEVAKDAGPSLLFITYAEAIANMPASTFFAIIFFLMLITLGLDSTFAGLEGVITAVLDEFPHIWAKRREWFVLIVVITCVLGSLLTLTSGGAYVVTLLEEYATGPAVLTVALIEAVAVSWFYGITQFCSDVKEMLGFSPGWFWRICWVAISPLFLLFIICSFLMSPPQLRLFQYNYPHWSIVLGYCIGMSSVICIPTYIIYRLISTPGTLKERIIKSITPETPTEIPCGDIRMNAV", "values": [
      {"measurement": "Expression (%) SERT = 100%", "setting": "[1]", "value": 492, "unit": "%"},
      {"measurement": "Cell surface expression", "setting": "[2]", "value": "**"}
    ]},
    {"molecule": "G115A: rat SERT single mutant G115A (protein) METTPLNSQKVLSECKDREDCQENGVLQKGVPTTADRAEPSQISNGYSAVPSTSAGDEASHSIPAATTTLVAEIRQGERETWGKKMDFLLSVIGYAVDLGNIWRFPYICYQNGGAAFLLPYTIMAIFGGIPLFYMELALGQYHRNGCISIWRKICPIFKGIGYAICIIAFYIASYYNTIIAWALYYLISSLTDRLPWTSCTNSWNTGNCTNYFAQDNITWTLHSTSPAEEFYLRHVLQIHQSKGLQDLGTISWQLTLCIVLIFTVIYFSIWKGVKTSGKVVWVTATFPYIVLSVLLVRGATLPGAWRGVVFYLKPNWQKLLETGVWVDAAAQIFFSLGPGFGVLLAFASYNKFNNNCYQDALVTSVVNCMTSFVSGFVIFTVLGYMAEMRNEDVSEVAKDAGPSLLFITYAEAIANMPASTFFAIIFFLMLITLGLDSTFAGLEGVITAVLDEFPHIWAKRREWFVLIVVITCVLGSLLTLTSGGAYVVTLLEEYATGPAVLTVALIEAVAVSWFYGITQFCSDVKEMLGFSPGWFWRICWVAISPLFLLFIICSFLMSPPQLRLFQYNYPHWSIVLGYCIGMSSVICIPTYIIYRLISTPGTLKERIIKSITPETPTEIPCGDIRMNAV", "values": [
      {"measurement": "Expression (%) SERT = 100%", "setting": "[1]", "value": 327, "unit": "%"},
      {"measurement": "Cell surface expression", "setting": "[2]", "value": "***"}
    ]},
    {"molecule": "A169L: rat SERT single mutant A169L (protein) METTPLNSQKVLSECKDREDCQENGVLQKGVPTTADRAEPSQISNGYSAVPSTSAGDEASHSIPAATTTLVAEIRQGERETWGKKMDFLLSVIGYAVDLGNIWRFPYICYQNGGGAFLLPYTIMAIFGGIPLFYMELALGQYHRNGCISIWRKICPIFKGIGYAICIILFYIASYYNTIIAWALYYLISSLTDRLPWTSCTNSWNTGNCTNYFAQDNITWTLHSTSPAEEFYLRHVLQIHQSKGLQDLGTISWQLTLCIVLIFTVIYFSIWKGVKTSGKVVWVTATFPYIVLSVLLVRGATLPGAWRGVVFYLKPNWQKLLETGVWVDAAAQIFFSLGPGFGVLLAFASYNKFNNNCYQDALVTSVVNCMTSFVSGFVIFTVLGYMAEMRNEDVSEVAKDAGPSLLFITYAEAIANMPASTFFAIIFFLMLITLGLDSTFAGLEGVITAVLDEFPHIWAKRREWFVLIVVITCVLGSLLTLTSGGAYVVTLLEEYATGPAVLTVALIEAVAVSWFYGITQFCSDVKEMLGFSPGWFWRICWVAISPLFLLFIICSFLMSPPQLRLFQYNYPHWSIVLGYCIGMSSVICIPTYIIYRLISTPGTLKERIIKSITPETPTEIPCGDIRMNAV", "values": [
      {"measurement": "Expression (%) SERT = 100%", "setting": "[1]", "value": 31, "unit": "%"},
      {"measurement": "Cell surface expression", "setting": "[2]", "value": "**"}
    ]},
    {"molecule": "L406A: rat SERT single mutant L406A (protein) METTPLNSQKVLSECKDREDCQENGVLQKGVPTTADRAEPSQISNGYSAVPSTSAGDEASHSIPAATTTLVAEIRQGERETWGKKMDFLLSVIGYAVDLGNIWRFPYICYQNGGGAFLLPYTIMAIFGGIPLFYMELALGQYHRNGCISIWRKICPIFKGIGYAICIIAFYIASYYNTIIAWALYYLISSLTDRLPWTSCTNSWNTGNCTNYFAQDNITWTLHSTSPAEEFYLRHVLQIHQSKGLQDLGTISWQLTLCIVLIFTVIYFSIWKGVKTSGKVVWVTATFPYIVLSVLLVRGATLPGAWRGVVFYLKPNWQKLLETGVWVDAAAQIFFSLGPGFGVLLAFASYNKFNNNCYQDALVTSVVNCMTSFVSGFVIFTVLGYMAEMRNEDVSEVAKDAGPSLAFITYAEAIANMPASTFFAIIFFLMLITLGLDSTFAGLEGVITAVLDEFPHIWAKRREWFVLIVVITCVLGSLLTLTSGGAYVVTLLEEYATGPAVLTVALIEAVAVSWFYGITQFCSDVKEMLGFSPGWFWRICWVAISPLFLLFIICSFLMSPPQLRLFQYNYPHWSIVLGYCIGMSSVICIPTYIIYRLISTPGTLKERIIKSITPETPTEIPCGDIRMNAV", "values": [
      {"measurement": "Expression (%) SERT = 100%", "setting": "[1]", "value": 87, "unit": "%"},
      {"measurement": "Cell surface expression", "setting": "[2]", "value": "*"}
    ]},
    {"molecule": "P499A: rat SERT single mutant P499A (protein) METTPLNSQKVLSECKDREDCQENGVLQKGVPTTADRAEPSQISNGYSAVPSTSAGDEASHSIPAATTTLVAEIRQGERETWGKKMDFLLSVIGYAVDLGNIWRFPYICYQNGGGAFLLPYTIMAIFGGIPLFYMELALGQYHRNGCISIWRKICPIFKGIGYAICIIAFYIASYYNTIIAWALYYLISSLTDRLPWTSCTNSWNTGNCTNYFAQDNITWTLHSTSPAEEFYLRHVLQIHQSKGLQDLGTISWQLTLCIVLIFTVIYFSIWKGVKTSGKVVWVTATFPYIVLSVLLVRGATLPGAWRGVVFYLKPNWQKLLETGVWVDAAAQIFFSLGPGFGVLLAFASYNKFNNNCYQDALVTSVVNCMTSFVSGFVIFTVLGYMAEMRNEDVSEVAKDAGPSLLFITYAEAIANMPASTFFAIIFFLMLITLGLDSTFAGLEGVITAVLDEFPHIWAKRREWFVLIVVITCVLGSLLTLTSGGAYVVTLLEEYATGAAVLTVALIEAVAVSWFYGITQFCSDVKEMLGFSPGWFWRICWVAISPLFLLFIICSFLMSPPQLRLFQYNYPHWSIVLGYCIGMSSVICIPTYIIYRLISTPGTLKERIIKSITPETPTEIPCGDIRMNAV", "values": [
      {"measurement": "Expression (%) SERT = 100%", "setting": "[1]", "value": 65, "unit": "%"},
      {"measurement": "Cell surface expression", "setting": "[2]", "value": "**"}
    ]}
  ]
}
